# According to patent publication US11814447B2, “Peptide ligands for binding to EphA2” (BICYCLERD LIMITED, priority 2018, dated 2023):
# Starred links: 1 amine or outer side, 2 acyl side, 3 side chain; linkers in the order of their positions; H or OH if unused. Positions of bridges follow the written chain, without caps; N, C: chain ends. Non-standard residues stand in square brackets, D forms with d. Primed or numbered codes have the meaning given here. No end group written: not given here. TBMB′ = 1,3,5-tris(bromomethyl)benzene, 1,3,5-tris(methylene)benzene core, three thioethers to Cys; TATA = O=C(CC[*:1])N1CN(C(=O)CC[*:2])CN(C(=O)CC[*:3])C1; Fl″ = fluorescein label (5(6)-carboxyfluorescein; 1Nal = N[C@@H](Cc1cccc2ccccc12)C(=O)O; TBMB = c1c(C[*:1])cc(C[*:3])cc1C[*:2]; hArg = N=C(N)NCCCC[C@H](N)C(=O)O; Tle = CC(C)(C)[C@H](N)C(=O)O; Dap = NC[C@H](N)C(=O)O; AF488 = AlexaFluor488; Aib = CC(C)(N)C(=O)O; βAla = NCCC(=O)O; Sar = CNCC(=O)O
# Assays:
# [1] = molecular target: T1, Human EphA2 (Ecto), C-terminal polyHis (Human, UniProt P29317 24-537); test: fluorescence polarisation, direct binding
# T1 construct: extracellular domain; also called EPH receptor A2; ephrin type-A receptor 2
# T1 sequence (P29317 24-537): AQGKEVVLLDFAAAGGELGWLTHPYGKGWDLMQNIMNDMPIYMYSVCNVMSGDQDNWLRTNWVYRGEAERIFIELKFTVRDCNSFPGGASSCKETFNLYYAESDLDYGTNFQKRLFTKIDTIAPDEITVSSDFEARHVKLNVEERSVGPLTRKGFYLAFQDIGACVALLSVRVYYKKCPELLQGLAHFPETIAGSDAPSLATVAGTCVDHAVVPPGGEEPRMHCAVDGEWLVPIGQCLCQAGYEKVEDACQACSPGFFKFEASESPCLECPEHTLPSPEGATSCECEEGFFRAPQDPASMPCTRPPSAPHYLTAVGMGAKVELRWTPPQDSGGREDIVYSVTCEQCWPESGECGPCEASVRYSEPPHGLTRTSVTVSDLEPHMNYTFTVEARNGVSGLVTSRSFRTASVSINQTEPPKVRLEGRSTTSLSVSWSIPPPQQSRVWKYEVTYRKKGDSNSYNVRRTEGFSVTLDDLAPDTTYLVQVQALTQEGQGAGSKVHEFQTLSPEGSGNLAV
# Method: Biological Data 1. […] The gain used for analysis was determined for each tracer at the end of the 60 minutes where there was no protein in the well. Data was analysed using Systat Sigmaplot version 12.0. mP values were fit to a user defined quadratic equation to generate a Kd value: f=y min+(y max−y min)/Lig*((x+Lig+Kd)/2−sqrt((((x+Lig+Kd)/2)^2)−(Lig*x))). "Lig" was a defined value of the concentration of tracer used.
# [2] = molecular target: EphA2 (species not stated in Examples 1-6 and Reference Examples 1-2) (Homo sapiens (Human)) (UniProt P29317); test: fluorescence polarisation competition; fluorescent peptide not named
# Sequence of EphA2 (species not stated in Examples 1-6 and Reference Examples 1-2) (Homo sapiens (Human)) (P29317 24-537 limits assumed, form in doubt): as the sequence (P29317 24-537) above
# [3] = molecular target: Human EphA2 (Ecto) (Human) (UniProt P29317); test: FP competition, tracer Compound 18
# Sequence of Human EphA2 (Ecto) (Human) (P29317 24-537): as above
# [4] = molecular target: Mouse EphA2 (Ecto) (Mouse) (UniProt Q03145); test: FP competition, tracer Compound 18
# Sequence of Mouse EphA2 (Ecto) (Mouse) (Q03145 26-538): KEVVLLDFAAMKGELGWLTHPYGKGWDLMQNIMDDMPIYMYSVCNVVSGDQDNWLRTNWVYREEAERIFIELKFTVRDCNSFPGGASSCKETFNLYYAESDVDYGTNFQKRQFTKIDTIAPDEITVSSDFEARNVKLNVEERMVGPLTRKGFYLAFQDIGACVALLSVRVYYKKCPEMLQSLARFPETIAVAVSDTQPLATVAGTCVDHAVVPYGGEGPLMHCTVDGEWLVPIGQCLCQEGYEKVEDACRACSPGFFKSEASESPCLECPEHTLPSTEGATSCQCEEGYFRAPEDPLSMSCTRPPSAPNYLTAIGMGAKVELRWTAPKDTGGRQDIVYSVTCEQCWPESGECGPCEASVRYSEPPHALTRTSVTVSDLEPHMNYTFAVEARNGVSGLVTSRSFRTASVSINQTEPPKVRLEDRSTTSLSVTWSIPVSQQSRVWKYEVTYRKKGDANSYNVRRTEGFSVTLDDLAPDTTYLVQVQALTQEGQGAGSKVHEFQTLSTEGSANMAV
# [5] = molecular target: Human EphA2 (Ecto) (Human) (UniProt P29317); test: FP direct binding
# [6] = molecular target: Human EphA2 (Ecto) (Human) (UniProt P29317); test: FP competition; tracer Reference Compound C
# [7] = molecular target: Mouse EphA2 (Ecto) (Mouse) (UniProt Q03145); test: FP competition; tracer Reference Compound C
# [8] = molecular target: EphA2 (species not stated in Examples 1-6 and Reference Examples 1-2) (Homo sapiens (Human), UniProt P29317 24-537); test: fluorescence polarisation competition; fluorescent peptide not named
# Sequence of EphA2 (species not stated in Examples 1-6 and Reference Examples 1-2) (P29317 24-537 limits assumed, form in doubt): as the sequence (P29317 24-537) above
# Mouse EphA2 (Ecto) [9] = molecular target: T2, Mouse EphA2 (Ecto) (Mouse, UniProt Q03145 26-538); test: fluorescence polarisation, direct binding
# T2 construct: extracellular domain; not shown: Fc fusion or C-terminal polyHis
# Mouse EphA2 (Ecto) [10] = molecular target: T3, Mouse EphA2 (Ecto) (Mouse, UniProt Q03145 26-538); test: FP competition, tracer Compound 18
# T3 construct: extracellular domain
# Outline: (§1)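 Unlabelled peptides competed against a fluorescently tagged peptide of known Kd. Peptides were diluted in direct-binding assay buffer (≤5% DMSO) and serially diluted 1 in 2. Read as in the direct binding assay, with gain set before the first read; mP values fit to a cubic equation to give Ki.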
# Human EphA2 (Ecto) = molecular target: T4, Human EphA2 (Ecto) (Human, UniProt P29317 24-537); test: FP competition, tracer Compound 18
# T4 construct: extracellular domain
# T4 sequence (P29317 24-537): as above
# Outline: as §1
# [11] = molecular target: T1, Human EphA2 (Ecto), C-terminal polyHis; test: fluorescence polarisation competition; competitor fluorescent Compound 1
# Method: (§2) Peptides without a fluorescent tag were tested in competition with a peptide with a fluorescent tag and a known Kd (Table 2). Peptides were diluted to an appropriate concentration in assay buffer as described in the direct binding assay with a maximum of 5% DMSO, then serially diluted 1 in 2. […] Measurements were conducted as for the direct binding assay, however the gain was determined prior to the first measurement. Data analysis was in Systat Sigmaplot version 12.0 where the mP values were fit to a user defined cubic equation to generate a Ki value: […]
# [12] = molecular target: T1, Human EphA2 (Ecto), C-terminal polyHis; test: fluorescence polarisation competition; competitor fluorescent Compound 12
# Method: as §2
# [13] = molecular target: T1, Human EphA2 (Ecto), C-terminal polyHis; test: fluorescence polarisation competition; competitor fluorescent Compound 66
# Outline: as §1
binder,measurement,setting,value
AF488-G[Sar][Sar][Sar][Sar][Sar][Sar][Sar][Sar][Sar][Sar]ACMNDWLCSLGWTC (linker 13-19-25 via TBMB) [Bicycle Compound Number 2 (TBMB scaffold)],Kd,[1],326 nM
GXXXXXXXXXXACPWGPAWCPVNRPGCA (N-terminal AF488 (AlexaFluor488); Sar10; 3 Cys thioether-linked to TBMB scaffold) [Bicycle Compound Number 14 (TBMB scaffold)],Kd,[1],38 nM
Ac-[βAla][Sar][Sar][Sar][Sar][Sar][Sar][Sar][Sar][Sar][Sar]H[dD]VP[Dap]PWGPFW[Dap]PVNRPGC (linker 16-23-30 via TBMB) [55-03-05-N314],Ki,[2],136 nM
Ac-[Sar][Sar]H[dD]VPCP[1Nal]G[Aib]F[1Nal]CP[Tle]N[hArg]P[dD]C (linker 7-14-21 via TBMB) [Bicycle Compound 254],Ki,[3],0.74 nM
same,Ki,[4],0.64 nM
Ac-[Sar][Sar]H[dD]VPCP[1Nal]G[Aib]F[1Nal]CP[Tle]NR[Aib]GC (linker 7-14-21 via TBMB) [Bicycle Compound 262],Ki,[3],0.71 nM
same,Ki,[4],0.72 nM
"{Fl″}-[βAla][Sar][Sar][Sar][Sar][Sar][Sar][Sar][Sar][Sar][Sar]A[hArg]DCPLVNPLCLHPGWTC (linker 15-22-29 via TATA) [Bicycle Compound 10 (TATA, Table 11)]",Kd,[5],9.07 nM
"[βAla][Sar][Sar][Sar][Sar][Sar][Sar][Sar][Sar][Sar][Sar]A[hArg]DCPLVNPLCLHPGWTC (linker 15-22-29 via TATA) [Bicycle Compound Number 67 (BCY6014) (TATA scaffold), (β-Ala)-Sar10-A(HArg)…]",Ki,[6],8.51 nM
same,Ki,[7],61.7 nM
"[βAla][Sar][Sar][Sar][Sar][Sar][Sar][Sar][Sar][Sar][Sar]ACPLVNPLCLHPGWSC[hArg]GQ (linker 13-20-27 via TATA) [Bicycle Compound Number 90 (TATA scaffold), (β-Ala)-Sar10-…(HArg)GQ]",Ki,[6],5.41 nM
same,Ki,[7],47 nM
"[βAla][Sar][Sar][Sar][Sar][Sar][Sar][Sar][Sar][Sar][Sar]H[dD]VPCPWGPFWCPVNRPGC (linker 16-23-30 via TBMB, bicyclic peptide on trimethylene benzene scaffold) [55-03-05-N233]",Ki,[8],4.12 nM
AF488-[βAla][Sar][Sar][Sar][Sar][Sar][Sar][Sar][Sar][Sar][Sar]H[dD]VPCPWGPFWCPVNRPGCA (linker 16-23-30 via TBMB) [Bicycle Compound Number 139 (TBMB scaffold)],Kd,Mouse EphA2 (Ecto) [9],0.8 nM
Ac-[Sar][Sar]A[dD]VTCPWGPFWCPVNRPGC (linker 7-14-21 via TBMB′) [Bicycle Compound 158],Ki,Mouse EphA2 (Ecto) [10],2.2 nM
same,Ki,Human EphA2 (Ecto),2.05 nM
Ac-[Sar][Sar]H[dD]VPCPWGPFWCPVNRPGC (linker 7-14-21 via TBMB) [Bicycle Compound 225],Ki,Mouse EphA2 (Ecto) [10],2.08 nM
same,Ki,Human EphA2 (Ecto),1 nM
"ACRNIPTMCPFGPVWCA (linker 2-9-16 via TBMB, also called Compound 32) [Bicycle Compound Number 32 (TBMB scaffold)]",Ki,[11],83.4 nM
"ACVPQGIWCALQFEPCA (linker 2-9-16 via TBMB (inferred), also called Compound 63) [Bicycle Compound Number 63 (TBMB scaffold)]",Ki,[11],144 nM
same,Ki,[12],92.2 nM
same,Ki,[13],82.5 nM
